T1: ChxH (Streptomyces sp. YIM 56141, UniProt I7D037)
T1 sequence (I7D037 1-262): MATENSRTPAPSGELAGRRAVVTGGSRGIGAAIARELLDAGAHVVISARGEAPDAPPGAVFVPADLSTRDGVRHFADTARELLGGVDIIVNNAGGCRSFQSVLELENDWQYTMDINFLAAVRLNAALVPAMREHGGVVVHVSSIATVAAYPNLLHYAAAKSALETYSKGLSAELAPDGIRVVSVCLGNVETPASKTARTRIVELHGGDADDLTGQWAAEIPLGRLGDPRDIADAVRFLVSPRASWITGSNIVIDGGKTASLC

B1: ChxH (Streptomyces sp. YIM 56141) (protein)
chain: T1 sequence (I7D037 1-262)

Key:
ChxH = molecular target: T1, ChxH; assay: steady-state kinetics, initial velocity, Michaelis-Menten; details: read-out: apparent KM; saturating NADP+; reverse reaction 1 to 10
purified protein [1] = substrate: NC(=O)c1ccc[n+]([C@@H]2O[C@H](COP(=O)(O)OP(=O)(O)OC[C@H]3O[C@@H](n4cnc5c(N)ncnc54)[C@H](OP(=O)(O)O)[C@@H]3O)[C@@H](O)[C@H]2O)c1; assay: purified protein; details: saturating 1; reverse reaction 1 to 10; varied: cofactor
purified protein [2] = substrate: NC(=O)c1ccc[n+]([C@@H]2O[C@H](COP(=O)(O)OP(=O)(O)OC[C@H]3O[C@@H](n4cnc5c(N)ncnc54)[C@H](O)[C@@H]3O)[C@@H](O)[C@H]2O)c1; assay: purified protein; details: saturating 1; reverse reaction 1 to 10; varied: cofactor

Row | Molecule | Km (ChxH) [µM] | Km (purified protein [1]) [µM] | kcat (purified protein [1]) [min^–1] | Km (purified protein [2]) [µM] | kcat (purified protein [2]) [min^–1]
1 | C[C@@H]1C[C@@H]([C@H](O)CC2CC(=O)NC(=O)C2)C(=O)[C@@H](C)C1 [compound 1, Cycloheximide] | 99 ± 7 | – | – | – | –
2 | B1 | – | 76 ± 5 | 387 ± 23 | 233 ± 37 | 13 ± 3

— paper PMC4051428 (Organic Letters, 2014)
